# Results taken from the supplement of paper PMC11780869.
# Tested on: Bacillus subtilis
# Experiment: cleaved RNA product abundance (RNA/gDNA barcode ratio) relative to median wild-type variant (ratio to wild type); higher = more accumulation of the downstream cleavage product
# Settings: experiment (reporter, strain, medium): exp 8a: truncated aprE reporter, strain BJT201 with 2% xylose (RNase J1 expressed); cleavage site: glnRA (positions -5 to +31 mutated)
# How it was run: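 Oligos with a 9% error rate were used to build barcoded, mutagenized RNase Y cleavage-site windows within truncated aprE or tetM reporter mRNAs, which were integrated into the B. subtilis chromosome. Cultures were grown in LB at 37°C between OD600 0.0003 and 0.3. Cleaved RNA was gel-selected, reverse transcribed and barcode-sequenced, as were genomic DNA barcodes, and UMIs were collapsed. Cleaved product abundance is the scaled RNA:gDNA barcode ratio, with the median construct carrying the unmutated site as reference.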
row,Sequence,cleaved RNA product abundance
1,CGACATGTCCCGCTTCTTTCATTAATCCGTTAACAACTGTTTTGCTATATACATATACCTTTTAAGAGGAGGAAT,0.195
2,CGACATGTCCCGCTTCTTTCATTAATCCGTTAACAACTGTTTTGCTATATACATTTAACTTTTAAGAGGAGGAAT,0.24
3,CGACATGTCCCGCTTCTTTCATTAATCCGTTAACAACTGTTTTGCTATATACATTTACATTTTAAGAGGAGGAAT,0.202
4,CGACATGTCCCGCTTCTTTCATTAATCCGTTAACAACTGTTTTGCTATATACATTTACCATTTAAGAGGAGGAAT,0.176
5,CGACATGTCCCGCTTCTTTCATTAATCCGTTAACAACTGTTTTGCTATATACATTTACCCTTTAAGAGGAGGAAT,0.198
6,CGACATGTCCCGCTTCTTTCATTAATCCGTTAACAACTGTTTTGCTATATACATTTACCTTTTAAGAGGAGGAAT,0.217
7,CGACATGTCCCGCTTCTTTCATTAATCCGTTAACAACTGTTTTGCTATATACATTTACTTTTTAAGAGGAGGAAT,0.253
8,CGACATGTCCCGCTTCTTTCATTAATCCGTTAACAACTGTTTTGCTATATACATTTAGCTTTTAAGAGGAGGAAT,0.204
9,CGACATGTCCCGCTTCTTTCATTAATCCGTTAACAACTGTTTTGCTATATACATTTATCTTTTAAGAGGAGGAAT,0.236
10,CGACATGTCCCGCTTCTTTCATTAATCCGTTAACAACTGTTTTGCTATATACATTTCCCTTTTAAGAGGAGGAAT,0.155
11,CGACATGTCCCGCTTCTTTCATTAATCCGTTAACAACTGTTTTGCTATATACATTTGCATTTTAAGAGGAGGAAT,0.202
12,CGACATGTCCCGCTTCTTTCATTAATCCGTTAACAACTGTTTTGCTATATACATTTTCCTTTTAAGAGGAGGAAT,0.0904
13,CGACATGTCCCGCTTCTTTCATTAATCCGTTAACAACTGTTTTGCTATATAGATTTACCTTTTAAGAGGAGGAAT,0.201
14,CGACATGTCCCGCTTCTTTCATTAATCCGTTAACAACTGTTTTGCTATATATATTTACCTTTTAAGAGGAGGAAT,0.2
15,CGACATGTCCCGCTTCTTTCATTAATCCGTTAACAACTGTTTTGCTGTATACATTTACCTTTTAAGAGGAGGAAT,0.166
16,CGACATGTCCCGCTTCTTTCATTAATCCGTTAACAACTGTTTTGGTATATACATATAGCTTTTAAGAGGAGGAAT,0.275
17,CGACATGTCCCGCTTCTTTCATTAATCCGTTAACAACTGTTTTGTTATATACATTTACCTTTTAAGAGGAGGAAT,0.271

row,Sequence,cleaved RNA product abundance
1,CGACATGTCCCGCTTCTTTCATTAATCCGTTAACAACTGTTTTTCTATATACATATACCTTTTAAGAGGAGGAAT,0.304
2,CGACATGTCCCGCTTCTTTCATTAATCCGTTAACAACTGTTTTTCTATATACATTTACCTTTTAAGAGGAGGAAT,0.258
3,CGACATGTCCCGCTTCTTTCATTAATCCGTTAACAACTTTTTTGCTATATACATTTACCTTTTAAGAGGAGGAAT,0.193
4,CGACATGTCCCGCTTCTTTCATTAATCCGTTAACAATTGTTTTGCTACATACATTTACCTTTTAAGAGGAGGAAT,0.135
5,CGACATGTCCCGCTTCTTTCATTAATCCGTTAACAATTGTTTTGCTATATACATTTACCTTTTAAGAGGAGGAAT,0.241
6,CGACATGTCCCGCTTCTTTCATTAATCCGTTAACACCTGTTTTGCTATATACATTTACCTTTTAAGAGGAGGAAT,0.258
7,CGACATGTCCCGCTTCTTTCATTAATCCGTTAACATCTGTTTTGCTATATACATTTACCTTTTAAGAGGAGGAAT,0.25
8,CGACATGTCCCGCTTCTTTCATTAATCCGTTAACTACTGTTTTGCTATATACATTTACCTTTTAAGAGGAGGAAT,0.265
9,CGACATGTCCCGCTTCTTTCATTAATCCGTTAATAACTGTTTTGCTATATACATTTAACTTTTAAGAGGAGGAAT,0.205
10,CGACATGTCCCGCTTCTTTCATTAATCCGTTAATAACTGTTTTGCTATATACATTTACCTTTTAAGAGGAGGAAT,0.262
11,CGACATGTCCCGCTTCTTTCATTAATCCGTTACCAAATGTTTTGCTATATACATTTACCTTTTAAGAGGAGGAAT,0.256
12,CGACATGTCCCGCTTCTTTCATTAATCCGTTACCAACAGTTTTGCTATATACATTTACCTTTTAAGAGGAGGAAT,0.215
13,CGACATGTCCCGCTTCTTTCATTAATCCGTTACCAACTATTTTGCTATATACATTTACCTTTTAAGAGGAGGAAT,0.178
14,CGACATGTCCCGCTTCTTTCATTAATCCGTTACCAACTCTTTTGCTATATACATTTACCTTTTAAGAGGAGGAAT,0.128
15,CGACATGTCCCGCTTCTTTCATTAATCCGTTACCAACTGATTTGCTATATACATTTACCTTTTAAGAGGAGGAAT,0.205
16,CGACATGTCCCGCTTCTTTCATTAATCCGTTACCAACTGTGTTGCTATATACATTTACCTTTTAAGAGGAGGAAT,0.277
